Source: publication PMC12859517

Tests used:
[1] = molecular target: Full-length MctBsm (MctB of M. smegmatis) (M. smegmatis)
[2] = molecular target: Full-length MctBsm (MctB of M. smegmatis) (M. smegmatis); test: SDS-PAGE under mild conditions with Western blot; 0.1% SDS in loading buffer, no reducing agent, not boiled, run in an ice bath; protein purified in OPOE; gel slices eluted with OPOE and run again

Question: With “Full-length MctBsm (MctB of M. smegmatis) (natural protein)” as the substance, how does the channel insertions in lipid bilayer experiments (DphPC, 1 M KCl, 10 mM Hepes pH 7.0, 100 mV), purified MctBsm before fractionation [1] read?
Answer: Its channel insertions in lipid bilayer experiments (DphPC, 1 M KCl, 10 mM Hepes pH 7.0, 100 mV), purified MctBsm before fractionation is 20 pS.

Question: And the stoichiometry N [2]?
Answer: Its stoichiometry N is over 2.
